What was measured:
[1] = target: canine parietal cell gastrin receptor (recombinant, clone GR-1, expressed in transfected COS-7 cells) (canine); assay: 125I-CCK-8 binding to GR-1 transfected COS-7 cells, no competitor (FIG. 3)
[2] = target: canine parietal cell gastrin receptor (recombinant, clone GR-1, expressed in transfected COS-7 cells) (canine); assay: radioligand saturation binding, GR-1 transfected COS-7 cells
[3] = target: gastrin receptor on native canine parietal cells (canine); assay: radioligand saturation binding, native parietal cells
[4] = target: canine parietal cell gastrin receptor (recombinant, clone GR-1, expressed in transfected COS-7 cells) (canine); assay: competition against 125I-CCK-8, intact GR-1 transfected COS-7 cells
[5] = target: canine parietal cell gastrin receptor (recombinant, clone GR-1, expressed in transfected COS-7 cells) (canine); assay: competition against 125I-CCK-8, isolated membranes of GR-1 transfected COS-7 cells
[6] = target: T1, human brain CCK-B receptor (Homo sapiens, UniProt P32239); assay: Competition binding of 125I CCK-8 to COS-7 cells transfected with hCCKB-pcDNA I; details: recombinant human CCK-B receptor
T1 construct: isolate the corresponding full length human CCK-B receptor cDNA from a fetal (week 23) human brain library; expressed in transfected cells; host or cells: COS-7 cells transiently transfected with hCCKB-pcDNA I
T1 sequence (P32239 1-447): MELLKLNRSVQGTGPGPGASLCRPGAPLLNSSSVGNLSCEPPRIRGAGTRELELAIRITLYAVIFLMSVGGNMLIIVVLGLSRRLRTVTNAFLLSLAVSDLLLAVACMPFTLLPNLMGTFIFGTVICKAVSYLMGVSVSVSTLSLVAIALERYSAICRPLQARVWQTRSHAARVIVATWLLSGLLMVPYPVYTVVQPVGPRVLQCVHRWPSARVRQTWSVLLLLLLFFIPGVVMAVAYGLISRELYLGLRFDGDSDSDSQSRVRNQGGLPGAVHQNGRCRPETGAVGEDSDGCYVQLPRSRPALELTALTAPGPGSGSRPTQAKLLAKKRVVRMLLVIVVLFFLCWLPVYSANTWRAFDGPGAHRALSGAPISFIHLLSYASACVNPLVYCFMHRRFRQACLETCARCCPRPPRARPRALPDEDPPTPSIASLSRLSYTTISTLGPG

[7] = target: T2, recombinant GR-1 receptor (canine parietal cell gastrin receptor) (Canis lupus familiaris, UniProt P30552); assay: Competition binding of 125I-CCK-8 to intact GR-1 transfected COS-7 cells
T2 construct: expressed in transfected cells; host or cells: COS-7 cells transiently transfected with GR-1 in pCDNA-1
T2 sequence (P30552 1-453): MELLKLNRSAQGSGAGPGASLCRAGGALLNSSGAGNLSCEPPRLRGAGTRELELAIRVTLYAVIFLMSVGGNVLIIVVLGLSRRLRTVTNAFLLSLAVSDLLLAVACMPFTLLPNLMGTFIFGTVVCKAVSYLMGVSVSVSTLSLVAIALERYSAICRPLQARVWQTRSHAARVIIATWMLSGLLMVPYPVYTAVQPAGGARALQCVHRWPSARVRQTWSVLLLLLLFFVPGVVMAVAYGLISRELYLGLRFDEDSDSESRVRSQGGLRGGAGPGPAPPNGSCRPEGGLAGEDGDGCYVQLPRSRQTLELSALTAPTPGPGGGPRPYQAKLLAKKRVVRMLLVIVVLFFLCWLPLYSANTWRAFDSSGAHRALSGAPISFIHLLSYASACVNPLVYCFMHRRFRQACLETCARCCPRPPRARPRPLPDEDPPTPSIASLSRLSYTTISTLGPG
Protocol: COS-7 cells (1.5x 10⁶) were plated in 10 cm culture dishes (Nunc) and grown in DMEM/ 10% fetal calf serum, 5% CO₂ at 37°C. […] Twenty-four hours following transfection, cells were split into 24-well dishes (Nunc), 5000 cells/well. […] Equilibrium binding occurred after incubation for 80 min at 37°C. Cell monolayers were subsequently washed three times and bound radioactivity was quantified after cell hydrolysis in 1 N NaOH.

[8] = target: T2, recombinant GR-1 receptor (canine parietal cell gastrin receptor); assay: Competition binding in isolated plasma membranes from GR-1 transfected COS-7 cells; details: isolated membranes from transiently transfected COS-7 cells, 60 min at 22°C; read-out: IC₅₀
Protocol: Binding parameters were also measured in isolated plasma membranes from COS-7 cells transfected with GR-1. Binding was performed for 60 min at 22°C.

[9] = target: canine parietal cell gastrin receptor (recombinant, clone GR-1, expressed in transfected COS-7 cells) (canine); assay: cell-based or functional assay

“¹²⁵I-CCK-8 (from UniProt P06307 96-103) (peptide)” showed a Maximum binding in the absence of competitor (100%) [1] of 5.2 pM, a Kd [2] of 0.08 nM and a Kd [3] of 0.27 nM.

In the case of “CCK-8 (from UniProt P06307 96-103) (peptide)”, the IC50 [4] is reported as 0.09 nM and the IC50 [5] is reported as 0.08 nM.

“CCK-8-desulfate (from UniProt P06307 96-103) (peptide)” was tested, and the IC50 [5] was 1.5 nM.

Cc1cccc(NC(=O)N[C@@H]2N=C(c3ccccc3)c3ccccc3N(C)C2=O)c1 [L365,260] was tested, and the “higher affinity than L364,718” value [6] was “approximately 40 fold” and the IC50 [7] was 130 nM.

CSCC[C@H](NC(=O)[C@H](Cc1ccc(O)cc1)NC(=O)[C@@H](N)CC(=O)O)C(=O)NCC(=O)N[C@@H](Cc1c[nH]c2ccccc12)C(=O)N[C@@H](CCSC)C(=O)N[C@@H](CC(=O)O)C(=O)N[C@@H](Cc1ccccc1)C(N)=O [CCK-8-desulfate] showed an IC50 ([7]; intact GR-1 transfected COS-7 cells, 40 pM 125I-CCK-8 radioligand, 80 min at 37°C, read-out: IC₅₀) of 1.4 nM and an IC50 [8] of 1.5 nM.

For “gastrin I (from UniProt P01350 76-92) (peptide)”, the IC50 [4] was 0.26 nM, the IC50 [5] was 0.4 nM and the free cytosolic calcium, [Ca²⁺] [9] was 142 nM. It also gave a free cytosolic calcium, [Ca²⁺], after chelation of extracellular calcium by EGTA (2.5 mM) [9] of 88.5 nM, a level of Ins-1,3,4,5-P₄, increase [9] of 272% and a level of Ins-1,4,5-P₃, increase over control [9] of 741%.

Compound CN1C(=O)[C@@H](NC(=O)c2cc3ccccc3[nH]2)N=C(c2ccccc2)c2ccccc21 [L364,718] has an IC50 ([7]; read-out: IC₅₀) of 19 nM.
